The record followed here is publication PMC3268058 (2010).

For the test, the target named is SRC SH3 domain (GST-SH3(SRC)) 83-139 (Gallus gallus, UniProt P00523). Nature of the test: fluorescence polarization competition.

Take RAARPLPPLPP [AGT(PP3) fusion]: binding was characterised by a dissociation constant (Kd) of 7 µM.

VSLARRPLPPLPRL [AGT(PP2) fusion] returned a Kd of 0.55 µM.
